Assay results as given in patent US20240294622A1 (SUZHOU TRANSCENTA THERAPEUTICS, published 2024).
One block for each binder: values may come before it.

Tests used:
[1] = target: T1, human COCO (R&D) (human, UniProt Q8N907 23-189, limits assumed); test: ELISA on coated human COCO (R&D, 0.5ug/ml), anti-mouse IgG-HRP
T1 sequence (looked up): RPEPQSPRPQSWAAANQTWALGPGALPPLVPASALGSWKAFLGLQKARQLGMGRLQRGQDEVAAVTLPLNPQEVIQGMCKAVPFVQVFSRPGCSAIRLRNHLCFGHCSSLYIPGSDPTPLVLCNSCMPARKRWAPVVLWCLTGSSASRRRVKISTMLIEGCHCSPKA
Method: In addition, the specificity of the binding of 14E3 and a benchmark antibody was assessed with ELISA. Briefly, clear polystyrene plates (BEAVER) were coated with 100 μl/well of a […] hGREM1 (ACRO), or human gremlin-2 (R&D), human COCO (R&D) and human DAN protein (R&D) in high pH coating buffer overnight at 4° C. Then the plates were washed once on an automatic plate washer using PBS+0.1% Tween 20 (Sigma). 100 μl of block solution consisting of PBS+1% BSA+1% normal goat serum+0.5% Tween 20 (Sigma) was added to each well and incubated at room temperature for 2 hours. Then 100 ul of antibodies in antibody dilution buffer containing PBS+1% BSA+1% normal goat serum+0.01% Tween 20 starting from 2 μg/ml and then 5 fold serial dilution were added to each well of the plate and incubated for 1 hours at room temperature. Afterward the plates were washed three times with 200 ul of PBS+0.1% Tween20 followed by adding 100 μl/well 1:10000 Goat anti mouse IgG-HRP (Abcam), and incubate for 1 hour at room temperature. They were then washed 3× with PBS+0.1% Tween20. Finally, 100 µl/well of TMB (Pierce) was added to each well and after 5 minutes add 50 ul of stop solution to each well. The plates were read on a Multiscan FC microplate reader (Thermo Scientific) at […].

[2] = target: T2, HGREM1-His (ACRO) (human, UniProt O60565 25-184); test: blocking ELISA, Human Gremlin-1 binding to FGFR1
T2 construct: Lys25-Asp184 of NP_037504 with C-terminal polyhistidine tag (ACRO GR1-H52H3); they are put here; also called hGREM1 (ACRO); human gremlin (ACRO)
T2 sequence: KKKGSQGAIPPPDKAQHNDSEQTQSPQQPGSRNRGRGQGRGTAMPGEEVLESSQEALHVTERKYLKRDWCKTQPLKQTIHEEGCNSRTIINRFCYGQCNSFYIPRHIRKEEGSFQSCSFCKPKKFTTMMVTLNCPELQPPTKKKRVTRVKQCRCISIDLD
Method: Next, 0.25 μg/ml of gremlin was selected to test the blocking activity. The ability of antibodies to block Gremlin binding to human FGFR1-Fc was examined via ELISA. Plates were coated with recombinant FGFR1-Fc (2 μg/ml) overnight and then serial dilutions of antibodies were incubated with 0.25 μg/ml of human Gremlin-his modified for 1 h at RT before this complex was added to coated plates and allowed to incubate for an additional hour at RT. The plates were then washed and added with anti-his HRP (GenScript). Plates were then developed with a TMB solution and stopped by adding stop solution. The plates were read on a plate reader at 450 nm. […] Humanized anti-GREM1 antibodies provided herein (e.g., Hu14E3, Hu22F1) are expected to show the similar technical effect as their chimeric counterparts in blocking the binding of hGREM1 to FGFR1.

[3] = target: T3, XM5-Fc (human (hGREM1 with residues 123-143 …)); test: ELISA on coated XM5-Fc (column XM5)
T3 construct: also called gremlin 1-DAN fusion protein
T3 chain: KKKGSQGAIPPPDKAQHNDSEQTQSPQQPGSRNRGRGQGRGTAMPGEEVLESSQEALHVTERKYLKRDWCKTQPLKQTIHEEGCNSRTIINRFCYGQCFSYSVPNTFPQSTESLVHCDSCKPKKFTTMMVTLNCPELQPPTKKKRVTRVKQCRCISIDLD
Method: Binding affinities to hGREM1 and XM5 were also compared. Briefly, XM5-Fc or Gremlin-his […] was coated. 100 μl of block solution consisting of PBS+1% BSA+1% normal goat serum+0.5% Tween 20 (Sigma) was added to each well and incubated at room temperature for 2 hours. 4-fold serial antibody dilution from 2 μg/ml were added. Afterward the plates were washed three times with 200 ul of PBS+0.1% Tween20 followed by adding 100 μl/well 1:10000 Goat anti mouse IgG-HRP (abeam), and incubate for 1 hour at room temperature. They were then washed 3× with PBS+0.1% Tween20. Finally, 100 μl/well of TMB (InnoReagents) was added to each well and after 2 minutes add 50 ul of stop solution to each well. The plates were read on a Multiscan FC microplate reader (Thermo Scientific) at […]. The EC50 values were show in table below.

[4] = target: T4, DAN-his (Sinobiological) (human, UniProt P41271 17-181, limits assumed); test: ELISA on coated DAN-his; unit from the axis Ab(nM)
T4 construct: also called DAN (Sinobiological); human DAN-his
T4 sequence (looked up): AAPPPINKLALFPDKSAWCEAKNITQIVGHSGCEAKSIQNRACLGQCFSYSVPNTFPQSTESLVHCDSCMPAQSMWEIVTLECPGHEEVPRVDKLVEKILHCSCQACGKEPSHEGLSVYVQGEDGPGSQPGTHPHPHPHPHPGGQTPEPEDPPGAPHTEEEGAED
Method: Clear polystyrene plates (BEAVER) were coated with 100 μl/well of a 0.5 μg/ml human gremlin (ACRO) and DAN (Sinobiological) in high pH coating buffer overnight at 4° C. Then the plates were washed once on an automatic plate washer using PBS+0.1% Tween 20 (Sigma). 100 μl of block solution consisting of PBS+1% BSA+1% normal goat serum+0.5% Tween 20 (Sigma) was added to each well and incubated at room temperature for 2 hours. Then 100 ul of antibodies (hybridoma or chimeric antibody 36F5, chimeric antibody 67G11, chimeric antibody 42B9) in antibody dilution buffer containing PBS+1% BSA+1% normal goat serum+0.01% Tween 20 starting from 2 μg/ml (13.33 nM) and then 4 fold serial dilution were added to each well of the plate and incubated for 1 hours at room temperature. Afterward the plates were washed three times with 200 ul of PBS+0.1% Tween20 followed by adding 100 μl/well 1:10000 Goat anti mouse IgG-HRP or mouse anti-human IgG-HRP (abcam), and incubate for 1 hour at room temperature. They were then washed 3× with PBS+0.1% Tween20. Finally, 100 μl/well of TMB (InnoReagents) was added to each well and after 2 minutes add 50 ul of stop solution to each well. The plates were read on a Multiscan FC microplate reader (Thermo Scientific) at 450 nm.

binding result [1]: no binding (tested: 1 ug/ml)
B1: 14E3 (antibody, V domains shown)
VH: QIQLVQSGPELKKPGETVKISCKTSGSTFTTYGMAWMKQAPGKGLTWMGWINTLSGEPTYADDFKGRFAFSLKTSANTAYLQINNLKNEDAATYFCAREPMDYWGQGTSVIVSS
VL: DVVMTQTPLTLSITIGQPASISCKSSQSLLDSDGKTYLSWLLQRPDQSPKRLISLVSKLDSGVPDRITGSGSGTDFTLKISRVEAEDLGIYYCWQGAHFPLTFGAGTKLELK
notes: mouse hybridoma antibody; also called hybridoma 14E3; anti-gremlin1 antibody 14E3

IC50 [2]: 1.84 µg/mL | EC50 [3]: 0.00692 µg/mL | EC50 [4]: 30.9 pM
B2: 36F5 (antibody, V domains shown)
VH: QVQLQQSGAELARPGASVKLSCKASGYSFTSSGIGWVKQRSGQGLEWIGEIYPRSGNTYNNEKFKGKATLTADKSSSTVYMELRSLTSEDSAVYFCVREAYSHHYYAMDYWGQGTSVTVFS
VL: DVLMTQTPLSLPVSLGGQASISCRSSQSLLHSNGNTYLEWYLQKPGQSPKLLIYKVSNRFSGVPDRLSGSGSGTDFTLKISRVEAEDLGVYYCFQGSHVPFTFGSGTKLEIN
notes: mouse hybridoma antibody; also called hybridoma 36F5
